Assay results from article PMC11324310.

Molecular target: C-t FLAG-tagged WT-RELN (mouse) (UniProt Q60841)
Test: immunoblot in non-reducing conditions (SDS-PAGE); culture media of HEK293T cells coexpressing FLAG-WT-RELN and monoallelic variants; non-reducing conditions

stoichiometry N: 2
Substance: C-t FLAG-tagged WT-RELN, Q60841 27-3461
